Positions count from the first letter of the chain named. Several values for one entry are separate records, joined by “and”; a condition that tells them apart may be missing. Identical values can stand only once. Oligonucleotides are written 5' to 3', each unit as a sugar letter and its base; * is a phosphorothioate linkage, no mark a phosphodiester; rarer units and linkages stand in square brackets, end groups in braces. Plain capitals give the bases only. d = 2'-deoxy (DNA)
B1: R-8: conventional-sequence RNA nanoparticle with extension fragments, strands SEQ ID NO: 76-78, C/U 2′F modified (nucleic acid)
chain 1: CGCGCGCCCAGGAGCGUUGGCGGGCGGCG
chain 2: CGCCGCCCGCCUUCGCCGCCAGCCGCC
chain 3: GGCGGCAGGCGGCCAUAGCCCUGGGCGCGCG
modifications: 2'-fluoro at CU, RNA at AG, backbone not given here; three-strand RNA nanoparticle used as drug carrier
B2: R-9: conventional-sequence RNA nanoparticle, strands SEQ ID NO: 79-81, C/U 2′F modified (nucleic acid)
chain 1: CGCGCGCCCAGCAGCGUUCGCGGGCGGCG
chain 2: CGCCGCCCGCGUUCGCCGCCAGCCGCC
chain 3: B1 chain 3 with C20G
modifications: 2'-fluoro at CU, RNA at AG, backbone not given here; three-strand RNA nanoparticle used as drug carrier
B3: R-10: conventional-sequence RNA nanoparticle, strands SEQ ID NO: 82-84, C/U 2′F modified (nucleic acid)
chain 1: CGCGCGCCCACGAGCGUUGCGGGGCGGCG
chain 2: CGCCGCCCCGCUUCGCCGCCAGCCGCC
chain 3: B1 chain 3 with C21G
modifications: 2'-fluoro at CU, RNA at AG, backbone not given here; three-strand RNA nanoparticle used as drug carrier
B4: R-11: conventional-sequence RNA nanoparticle, strands SEQ ID NO: 85-87, C/U 2′F modified (nucleic acid)
chain 1: CGCGCGCCCAGGAGCGUUGGCCCGCGGCG
chain 2: CGCCGCGGGCCUUCGGGGCCAGCCGCC
chain 3: B1 chain 3 with G11C, G12C
modifications: 2'-fluoro at CU, RNA at AG, backbone not given here; three-strand RNA nanoparticle used as drug carrier
B5: R-12: conventional-sequence RNA nanoparticle, strands SEQ ID NO: 88-90, C/U 2′F modified (nucleic acid)
chain 1: CGCGCGCCCAGCAGCGUUCGCCCCGCCGC
chain 2: GCGGCGGGGCGUUCGGCGGCAGGCGGC
chain 3: GCCGCCAGCCGCCCAUAGCGCUGGGCGCGCG
modifications: 2'-fluoro at CU, RNA at AG, backbone not given here; three-strand RNA nanoparticle used as drug carrier
B6: R-13: conventional-sequence RNA nanoparticle, strands SEQ ID NO: 91-93, C/U 2′F modified (nucleic acid)
chain 1: CGCGCGCCCAGCAGCGUUCGGGGCGCCGC
chain 2: GCGGCGCCCCGUUCGGCCGGCAGGCGGC
chain 3: GCCGCCAGCCGGCCCAUAGCGCUGGGCGCGCG
modifications: 2'-fluoro at CU, RNA at AG, backbone not given here; Strands self-assemble into an RNA nanoparticle carrier
B7: R-14: conventional-sequence RNA nanoparticle carrying survivin siRNA, strands SEQ ID NO: 94-96, C/U 2′F modified (nucleic acid)
chain 1: CGCGCGCGAGCGUUGCAAUGACAGAUAAGGAACCUGCUTT
chain 2: GGCAGGUUCCUUAUCUGUCAAAGCUUCGGCGGCAGC
chain 3: GCAGCCGCCCAUAGCCGCGCGCG
modifications: chain 1: DNA at T, 2'-fluoro at CU, RNA at AG, backbone not given here; chain 2: 2'-fluoro at CU, RNA at AG, backbone not given here; chain 3: 2'-fluoro at CU, RNA at AG, backbone not given here; three-strand RNA nanoparticle carrying a survivin siRNA fragment
B8: D-2: conventional-sequence DNA nanoparticle with EGFRapt target head, strands SEQ ID NO: 102-104 (nucleic acid)
chain 1: dC*dG*dC*dGdCdGdCdCdCdAdGdCdAdGdCdGdTdTdCdGdCdGdGdGdCdGdGdCdGdGdCdCdTdTdAdGdTdAdAdCdGdTdGdCdTdTdTdGdAdTdGdTdCdGdAdTdTdCdGdAdCdAdGdGdA*dG*dG*dC
chain 2: dC*dG*dC*dCdGdCdCdCdGdCdGdTdTdCdGdCdCdGdCdCdAdGdCdC*dG*dC*dC
chain 3: dG*dG*dC*dGdGdCdAdGdGdCdGdGdCdCdAdTdAdGdCdGdCdTdGdGdGdCdGdC*dG*dC*dG
modifications: three-strand DNA nanoparticle with an EGFR aptamer part
B9: D-6: conventional-sequence DNA nanoparticle without target head, strands SEQ ID NO: 114-116 (nucleic acid)
chain 1: dC*dG*dC*dGdCdGdCdCdCdAdGdCdAdGdCdGdTdTdCdGdGdGdGdCdGdC*dC*dG*dC
chain 2: dG*dC*dG*dGdCdGdCdCdCdCdGdTdTdCdGdGdCdCdGdGdCdAdGdGdC*dG*dG*dC
chain 3: dG*dC*dC*dGdCdCdAdGdCdCdGdGdCdCdCdAdTdAdGdCdGdCdTdGdGdGdCdGdC*dG*dC*dG
modifications: three-strand DNA nanoparticle
B10: D-7: conventional-sequence DNA nanoparticle without target head, strands SEQ ID NO: 117-119 (nucleic acid)
chain 1: dC*dG*dC*dGdCdGdCdCdCdAdCdGdAdGdCdGdTdTdGdCdGdGdGdCdGdC*dC*dG*dC
chain 2: dG*dC*dG*dGdCdGdCdCdCdGdCdTdTdCdGdGdCdGdGdCdAdGdGdC*dG*dG*dC
chain 3: dG*dC*dC*dGdCdCdAdGdCdCdGdCdCdCdAdTdAdGdCdCdGdTdGdGdGdCdGdC*dG*dC*dG
modifications: three-strand DNA nanoparticle

Assay: Electric potential (zeta potential) measurement of self-assembly products
Type: physicochemical
Conditions: result over 3 detections, sample in ultrapure water
Protocol: Measurement method: preparing a potential sample (the self-assembly product is dissolved in ultrapure water) and putting into a sample pool, opening a sample pool cover of an instrument, and placing the instrument;
opening software, clicking a menu MeasUre€ManUal, so a manual measurement parameter setting dialog box appears;
setting a software detection parameter;
and then clicking Ok to complete the settings, after a measurement dialog box appears, clicking start to start.
and then clicking Ok to complete the settings, after a measurement dialog box appears, clicking Start to start.
Measurement method: preparing a potential sample (the self-assembly product is dissolved in ultrapure water) and putting into a sample pool, opening a sample pool cover of an instrument, and placing the instrument:
Measurement result potential detection results of the 7 groups of the extension fragment deformation+core short-sequence RNA nanoparticles at 25 DEG C. are as follows:
setting a software detection parameter; and then
clicking Ok to complete the settings, after a measurement dialog box appears, clicking Start to start.
Measurement result potential detection results of the 7 groups of the extension fragment deformation+core short-sequence DNA nanoparticles at 25 DEG C. are as follows: […]

Row | Molecule | Potential ZP, Experiment result
1 | B1 | −17.43 mV (±1.33 mV)
2 | B2 | −18.20 mV (±1.3 mV)
3 | B3 | −10.87 mV (±0.47 mV)
4 | B4 | −29.13 mV (±3.13 mV)
5 | B5 | −10.86 mV (±3.27 mV)
6 | B6 | −15.45 mV (±5.81 mV)
7 | B7 | −23.53 mV. ± 2.33 mV
8 | B8 | −36.47 mV (±0.67 mV)
9 | B9 | −31.90 mV (±0.2 mV)
10 | B10 | −32.20 mV (±0.0.5 mV)

Assay: Particle size measurement (DLS hydrodynamic size)
Type: physicochemical
Conditions: result over 3 detections, DLS
Description: 1. Preparing a potential sample (conventional-sequence DNA self-assembly product D-7) and putting into a sample pool, opening a sample pool cover of an instrument, and placing the instrument;
2. opening software, and clicking a menu, so a manual measurement parameter setting dialog box appears;
3. setting a software detection parameter; and then
4. clicking Ok to complete the settings, when a measurement dialog box appears, clicking Start to start, a DLS measurement value result of a hydrodynamic size of the self-assembly product D-7 is shown below in Table 40: […]

Row | Molecule | Particle size Z-Ave, Experiment result
11 | B10 | 12.33 d.nm (±1.57 d.nm)

Same assay, conditions: single detection (detection times 1-3), DLS

Row | Molecule | Particle size Z-Ave
12 | B10 | 10.76 nm·days and 13.9 nm·days and 10.36 nm·days

Source: US20220226473A1, “Nucleic acid nanocarrier drug and preparation method thereof, pharmaceutical composition and application thereof” (BAI YAO ZHI DA (BEIJING) NANOBIO TECHNOLOGY CO., LTD., priority 2018, published 2022)
